Earlier results in PMC10979411.

Biological target: Nterm (UniProt position 44, ADPEAGIGAVL)
Test: NMR
Settings: micelle-associated melittin

Substance: Melittin (Apis mellifera (inferred; organism not stated in the article))
- pKa: 7.15–8.15
